Data as given in article PMC4244197 (Molecular Biology of the Cell, 2014).

Target: T1, GST-17NAnk (GST-tagged N-terminal cytosolic domain of zDHHC17, amino acids 11-305) (mouse, UniProt Q80TN5-1 11-305)
T1 sequence (looked up): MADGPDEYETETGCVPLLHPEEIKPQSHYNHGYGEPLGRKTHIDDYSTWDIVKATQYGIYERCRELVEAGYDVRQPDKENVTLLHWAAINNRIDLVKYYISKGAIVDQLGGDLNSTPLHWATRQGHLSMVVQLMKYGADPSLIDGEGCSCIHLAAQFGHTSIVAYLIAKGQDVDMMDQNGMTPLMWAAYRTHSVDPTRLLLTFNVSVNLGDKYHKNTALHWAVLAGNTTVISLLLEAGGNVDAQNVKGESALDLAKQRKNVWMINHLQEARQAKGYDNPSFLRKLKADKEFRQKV
Assay: pull-down

- fold lower binding than nonpalmitoylated Myc-CSP: 6 fold
B1: Myc-tagged CSP, palmitoylated (p) (natural protein, UniProt Q29455 1-198, looked up)
chain: MADQRQRSLSTSGESLYHVLGLDKNATSDDIKKSYRKLALKYHPDKNPDNPEAADKFKEINNAHAILTDATKRNIYDKYGSLGLYVAEQFGEENVNTYFVLSSWWAKALFIFCGLLTCCYCCCCLCCCFNCCCGKCKPKAPEGEETEFYVSPEDLEAQLQSDEREAADTPIVIQPASATETTQLTADSHPSYHTDGFN
modifications: palmitoylated (S-acylated) cysteines, positions not given
